Measurements from US20230167164A1 (IMMUNOWAKE, published 2023).

Assays:
CD8 on CD8+ T cells = target: T1, CD8 on CD8+ T cells (human, UniProt P01732 22-235); experiment: FACS on CD8+ T cells
T1 construct: whole, on cells

[1] = target: human IL-12 receptor complex (human, UniProt P42701 24-662; Q99665 24-862); experiment: cell-based or functional assay
IL-23 receptor complex = IL-23 receptor complex (UniProt P42701 24-662; Q5VWK5 24-629, limits assumed); experiment: cell-based or functional assay
Sequence of IL-23 receptor complex (Q5VWK5 24-629 limits assumed, chain 2 of 2, other chains not shown): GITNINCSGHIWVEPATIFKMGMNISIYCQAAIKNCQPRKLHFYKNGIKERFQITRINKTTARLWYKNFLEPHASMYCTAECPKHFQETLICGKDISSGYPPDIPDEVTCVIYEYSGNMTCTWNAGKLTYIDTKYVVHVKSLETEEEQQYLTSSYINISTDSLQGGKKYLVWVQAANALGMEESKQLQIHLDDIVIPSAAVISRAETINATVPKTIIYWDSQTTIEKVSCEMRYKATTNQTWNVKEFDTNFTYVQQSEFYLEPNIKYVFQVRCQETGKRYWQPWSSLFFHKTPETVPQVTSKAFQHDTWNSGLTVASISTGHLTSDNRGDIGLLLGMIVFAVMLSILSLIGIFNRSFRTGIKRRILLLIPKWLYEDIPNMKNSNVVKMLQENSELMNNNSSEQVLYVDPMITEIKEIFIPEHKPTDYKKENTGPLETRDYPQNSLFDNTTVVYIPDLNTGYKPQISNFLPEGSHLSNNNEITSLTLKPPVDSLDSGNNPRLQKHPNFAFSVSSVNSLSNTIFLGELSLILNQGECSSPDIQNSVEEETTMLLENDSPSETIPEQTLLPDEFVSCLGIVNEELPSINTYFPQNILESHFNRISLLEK

T1 sequence (P01732 22-235): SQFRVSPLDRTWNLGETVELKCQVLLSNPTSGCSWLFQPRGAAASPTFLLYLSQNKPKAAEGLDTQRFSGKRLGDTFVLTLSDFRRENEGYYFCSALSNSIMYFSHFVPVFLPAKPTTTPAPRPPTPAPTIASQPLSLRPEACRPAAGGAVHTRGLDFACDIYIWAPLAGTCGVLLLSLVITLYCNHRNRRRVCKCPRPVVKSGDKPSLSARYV
Sequence of human IL-12 receptor complex (Q99665 24-862, chain 2 of 2, other chains not shown): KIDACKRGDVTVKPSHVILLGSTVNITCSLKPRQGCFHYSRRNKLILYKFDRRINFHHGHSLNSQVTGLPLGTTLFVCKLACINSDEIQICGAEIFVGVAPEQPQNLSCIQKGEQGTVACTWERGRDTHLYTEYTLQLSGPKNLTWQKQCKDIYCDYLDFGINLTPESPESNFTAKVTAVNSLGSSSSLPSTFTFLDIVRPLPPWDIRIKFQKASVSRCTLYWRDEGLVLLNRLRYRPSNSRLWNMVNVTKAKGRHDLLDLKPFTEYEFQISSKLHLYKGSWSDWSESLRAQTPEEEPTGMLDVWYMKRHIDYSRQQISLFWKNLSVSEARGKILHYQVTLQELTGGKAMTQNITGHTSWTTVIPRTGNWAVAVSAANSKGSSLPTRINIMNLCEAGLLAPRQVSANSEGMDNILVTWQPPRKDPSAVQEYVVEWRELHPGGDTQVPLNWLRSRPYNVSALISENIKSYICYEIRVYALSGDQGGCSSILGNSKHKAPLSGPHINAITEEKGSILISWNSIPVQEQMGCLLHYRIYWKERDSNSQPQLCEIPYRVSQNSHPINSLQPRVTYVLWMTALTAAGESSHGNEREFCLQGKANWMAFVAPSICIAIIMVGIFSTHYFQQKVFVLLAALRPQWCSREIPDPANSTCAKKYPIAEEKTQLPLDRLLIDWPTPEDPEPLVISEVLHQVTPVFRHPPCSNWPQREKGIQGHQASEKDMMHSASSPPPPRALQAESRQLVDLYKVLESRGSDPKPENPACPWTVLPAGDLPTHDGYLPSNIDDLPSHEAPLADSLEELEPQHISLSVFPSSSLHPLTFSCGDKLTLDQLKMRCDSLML

Row | binding result (CD8 on CD8+ T cells) | IFN-γ release, % of rIL-12, activated CD8+ T cells [1] | IFN-γ release, % of rIL-23, activated CD8+ T cells (IL-23 receptor complex) | Binder
1 | no binding | 1.1% | – | Fab-IL-12(E59A)-Fc-CD4 Ab (other) heavy 1: QVQLQQSGPEVVKPGASVKMSCKASGYTFTSYVIHWVRQKPGQGLDWIGYINPYNDGTDYDEKFKGKATLTSDTSTSTAYMELSSLRSEDTAVYYCAREKDNYATGAWFAYWGQGTLVTVSSASTKGPSVFPLAPSSKSTSGGTAALGCLVKDYFPEPVTVSWNSGALTSGVHTFPAVLQSSGLYSLSSVVTVPSSSLGTQTYICNVNHKPSNTKVDKKVEPKSCDKPGSGIWELKKDVYVVELDWYPDAPGEMVVLTCDTPEEDGITWTLDQSSEVLGSGKTLTIQVKAFGDAGQYTCHKGGEVLSHSLLLLHKKEDGIWSTDILKDQKEPKNKTFLRCEAKNYSGRFTCWWLTTISTDLTFSVKSSRGSSDPQGVTCGAATLSAERVRGDNKEYEYSVECQEDSACPAAEESLPIEVMVDAVHKLKYENYTSSFFIRDIIKPDPPKNLQLKPLKNSRQVEVSWEYPDTWSTPHSYFSLTFCVQVQGKSKREKKDRVFTDKTSATVICRKNASISVRAQDRYYSSSWSEWASVPCSGGGGSGGGGSGGGGSGGGGSGRNLPVATPDPGMFPCLHHSQNLLRAVSNMLQKARQTLEFYPCTSEEIDHEDITKDKTSTVEACLPLELTKNESCLNSRETSFITNGSCLASRKTSFMMALCLSSIYEDLKMYQVEFKTMNAKLLMDPKRQIFLDQNMLAVIDELMQALNFNSETVPQKSSLEEPDFYKTKIKLCILLHAFRIRAVTIDRVMSYLNASDKTHTCPPCPAPEDEGGPSVFLFPPKPKDTLMISRTPEVTCVVVDVSHEDPEVKFNWYVDGVEVHNAKTKPREEQYNSTYRVVSVLTVLHQDWLNGKEYKCKVSNKALPAPIEKTISKAKGQPREPQVYVYPPSREEMTKNQVSLTCLVKGFYPSDIAVEWESNGQPENNYKTTPPVLDEDGSFALVSKLTVDKSRWQQGNVFSCSVMHEALHNHYTQKSLSLSPGK heavy 2: QVQLQQSGPEVVKPGASVKMSCKASGYTFTSYVIHWVRQKPGQGLDWIGYINPYNDGTDYDEKFKGKATLTSDTSTSTAYMELSSLRSEDTAVYYCAREKDNYATGAWFAYWGQGTLVTVSSASTKGPSVFPLAPSSKSTSGGTAALGCLVKDYFPEPVTVSWNSGALTSGVHTFPAVLQSSGLYSLSSVVTVPSSSLGTQTYICNVNHKPSNTKVDKKVEPKSCDKTHTCPPCPAPEKKGGPSVFLFPPKPKDTLMISRTPEVTCVVVDVSHEDPEVKFNWYVDGVEVHNAKTKPREEQYNSTYRVVSVLTVLHQDWLNGKEYKCKVSNKALPAPIEKTISKAKGQPREPQVYVLPPSREEMTKNQVSLLCLVKGFYPSDIAVEWESNGQPENRYMTWPPVLDSDGSFFLYSKLTVDKSRWQQGNVFSCSVMHEALHNHYTQKSLSLSPGK light: not shown
2 | no binding | 1.5% | – | Fab-IL-12(F60A)-Fc-CD4 Ab (other) heavy 1: QVQLQQSGPEVVKPGASVKMSCKASGYTFTSYVIHWVRQKPGQGLDWIGYINPYNDGTDYDEKFKGKATLTSDTSTSTAYMELSSLRSEDTAVYYCAREKDNYATGAWFAYWGQGTLVTVSSASTKGPSVFPLAPSSKSTSGGTAALGCLVKDYFPEPVTVSWNSGALTSGVHTFPAVLQSSGLYSLSSVVTVPSSSLGTQTYICNVNHKPSNTKVDKKVEPKSCDKPGSGIWELKKDVYVVELDWYPDAPGEMVVLTCDTPEEDGITWTLDQSSEVLGSGKTLTIQVKEAGDAGQYTCHKGGEVLSHSLLLLHKKEDGIWSTDILKDQKEPKNKTFLRCEAKNYSGRFTCWWLTTISTDLTFSVKSSRGSSDPQGVTCGAATLSAERVRGDNKEYEYSVECQEDSACPAAEESLPIEVMVDAVHKLKYENYTSSFFIRDIIKPDPPKNLQLKPLKNSRQVEVSWEYPDTWSTPHSYFSLTFCVQVQGKSKREKKDRVFTDKTSATVICRKNASISVRAQDRYYSSSWSEWASVPCSGGGGSGGGGSGGGGSGGGGSGRNLPVATPDPGMFPCLHHSQNLLRAVSNMLQKARQTLEFYPCTSEEIDHEDITKDKTSTVEACLPLELTKNESCLNSRETSFITNGSCLASRKTSFMMALCLSSIYEDLKMYQVEFKTMNAKLLMDPKRQIFLDQNMLAVIDELMQALNFNSETVPQKSSLEEPDFYKTKIKLCILLHAFRIRAVTIDRVMSYLNASDKTHTCPPCPAPEDEGGPSVFLFPPKPKDTLMISRTPEVTCVVVDVSHEDPEVKFNWYVDGVEVHNAKTKPREEQYNSTYRVVSVLTVLHQDWLNGKEYKCKVSNKALPAPIEKTISKAKGQPREPQVYVYPPSREEMTKNQVSLTCLVKGFYPSDIAVEWESNGQPENNYKTTPPVLDEDGSFALVSKLTVDKSRWQQGNVFSCSVMHEALHNHYTQKSLSLSPGK heavy 2: QVQLQQSGPEVVKPGASVKMSCKASGYTFTSYVIHWVRQKPGQGLDWIGYINPYNDGTDYDEKFKGKATLTSDTSTSTAYMELSSLRSEDTAVYYCAREKDNYATGAWFAYWGQGTLVTVSSASTKGPSVFPLAPSSKSTSGGTAALGCLVKDYFPEPVTVSWNSGALTSGVHTFPAVLQSSGLYSLSSVVTVPSSSLGTQTYICNVNHKPSNTKVDKKVEPKSCDKTHTCPPCPAPEKKGGPSVFLFPPKPKDTLMISRTPEVTCVVVDVSHEDPEVKFNWYVDGVEVHNAKTKPREEQYNSTYRVVSVLTVLHQDWLNGKEYKCKVSNKALPAPIEKTISKAKGQPREPQVYVLPPSREEMTKNQVSLLCLVKGFYPSDIAVEWESNGQPENRYMTWPPVLDSDGSFFLYSKLTVDKSRWQQGNVFSCSVMHEALHNHYTQKSLSLSPGK light: not shown
3 | – | – | 2% | Fab-IL-23(E59A)-Fc-CD4 Ab (other) heavy 1: QVQLQQSGPEVVKPGASVKMSCKASGYTFTSYVIHWVRQKPGQGLDWIGYINPYNDGTDYDEKFKGKATLTSDTSTSTAYMELSSLRSEDTAVYYCAREKDNYATGAWFAYWGQGTLVTVSSASTKGPSVFPLAPSSKSTSGGTAALGCLVKDYFPEPVTVSWNSGALTSGVHTFPAVLQSSGLYSLSSVVTVPSSSLGTQTYICNVNHKPSNTKVDKKVEPKSCDKPGSGIWELKKDVYVVELDWYPDAPGEMVVLTCDTPEEDGITWTLDQSSEVLGSGKTLTIQVKAFGDAGQYTCHKGGEVLSHSLLLLHKKEDGIWSTDILKDQKEPKNKTFLRCEAKNYSGRFTCWWLTTISTDLTFSVKSSRGSSDPQGVTCGAATLSAERVRGDNKEYEYSVECQEDSACPAAEESLPIEVMVDAVHKLKYENYTSSFFIRDIIKPDPPKNLQLKPLKNSRQVEVSWEYPDTWSTPHSYFSLTFCVQVQGKSKREKKDRVFTDKTSATVICRKNASISVRAQDRYYSSSWSEWASVPCSGGGGSGGGGSGGGGSGGGGSGRAVPGGSSPAWTQCQQLSQKLCTLAWSAHPLVGHMDLREEGDEETTNDVPHIQCGDGCDPQGLRDNSQFCLQRIHQGLIFYEKLLGSDIFTGEPSLLPDSPVGQLHASLLGLSQLLQPEGHHWETQQIPSLSPSQPWQRLLLRFKILRSLQAFVAVAARVFAHGAATLSPDKTHTCPPCPAPEDEGGPSVFLFPPKPKDTLMISRTPEVTCVVVDVSHEDPEVKFNWYVDGVEVHNAKTKPREEQYNSTYRVVSVLTVLHQDWLNGKEYKCKVSNKALPAPIEKTISKAKGQPREPQVYVYPPSREEMTKNQVSLTCLVKGFYPSDIAVEWESNGQPENNYKTTPPVLDEDGSFALVSKLTVDKSRWQQGNVFSCSVMHEALHNHYTQKSLSLSPGK heavy 2: QVQLQQSGPEVVKPGASVKMSCKASGYTFTSYVIHWVRQKPGQGLDWIGYINPYNDGTDYDEKFKGKATLTSDTSTSTAYMELSSLRSEDTAVYYCAREKDNYATGAWFAYWGQGTLVTVSSASTKGPSVFPLAPSSKSTSGGTAALGCLVKDYFPEPVTVSWNSGALTSGVHTFPAVLQSSGLYSLSSVVTVPSSSLGTQTYICNVNHKPSNTKVDKKVEPKSCDKTHTCPPCPAPEKKGGPSVFLFPPKPKDTLMISRTPEVTCVVVDVSHEDPEVKFNWYVDGVEVHNAKTKPREEQYNSTYRVVSVLTVLHQDWLNGKEYKCKVSNKALPAPIEKTISKAKGQPREPQVYVLPPSREEMTKNQVSLLCLVKGFYPSDIAVEWESNGQPENRYMTWPPVLDSDGSFFLYSKLTVDKSRWQQGNVFSCSVMHEALHNHYTQKSLSLSPGK light: not shown
4 | no binding | 0% | – | Fab-IL-12(E59A/F60A)-Fc-CD4 Ab (other) heavy 1: QVQLQQSGPEVVKPGASVKMSCKASGYTFTSYVIHWVRQKPGQGLDWIGYINPYNDGTDYDEKFKGKATLTSDTSTSTAYMELSSLRSEDTAVYYCAREKDNYATGAWFAYWGQGTLVTVSSASTKGPSVFPLAPSSKSTSGGTAALGCLVKDYFPEPVTVSWNSGALTSGVHTFPAVLQSSGLYSLSSVVTVPSSSLGTQTYICNVNHKPSNTKVDKKVEPKSCDKPGSGIWELKKDVYVVELDWYPDAPGEMVVLTCDTPEEDGITWTLDQSSEVLGSGKTLTIQVKAAGDAGQYTCHKGGEVLSHSLLLLHKKEDGIWSTDILKDQKEPKNKTFLRCEAKNYSGRFTCWWLTTISTDLTFSVKSSRGSSDPQGVTCGAATLSAERVRGDNKEYEYSVECQEDSACPAAEESLPIEVMVDAVHKLKYENYTSSFFIRDIIKPDPPKNLQLKPLKNSRQVEVSWEYPDTWSTPHSYFSLTFCVQVQGKSKREKKDRVFTDKTSATVICRKNASISVRAQDRYYSSSWSEWASVPCSGGGGSGGGGSGGGGSGGGGSGRNLPVATPDPGMFPCLHHSQNLLRAVSNMLQKARQTLEFYPCTSEEIDHEDITKDKTSTVEACLPLELTKNESCLNSRETSFITNGSCLASRKTSFMMALCLSSIYEDLKMYQVEFKTMNAKLLMDPKRQIFLDQNMLAVIDELMQALNFNSETVPQKSSLEEPDFYKTKIKLCILLHAFRIRAVTIDRVMSYLNASDKTHTCPPCPAPEDEGGPSVFLFPPKPKDTLMISRTPEVTCVVVDVSHEDPEVKFNWYVDGVEVHNAKTKPREEQYNSTYRVVSVLTVLHQDWLNGKEYKCKVSNKALPAPIEKTISKAKGQPREPQVYVYPPSREEMTKNQVSLTCLVKGFYPSDIAVEWESNGQPENNYKTTPPVLDEDGSFALVSKLTVDKSRWQQGNVFSCSVMHEALHNHYTQKSLSLSPGK heavy 2: QVQLQQSGPEVVKPGASVKMSCKASGYTFTSYVIHWVRQKPGQGLDWIGYINPYNDGTDYDEKFKGKATLTSDTSTSTAYMELSSLRSEDTAVYYCAREKDNYATGAWFAYWGQGTLVTVSSASTKGPSVFPLAPSSKSTSGGTAALGCLVKDYFPEPVTVSWNSGALTSGVHTFPAVLQSSGLYSLSSVVTVPSSSLGTQTYICNVNHKPSNTKVDKKVEPKSCDKTHTCPPCPAPEKKGGPSVFLFPPKPKDTLMISRTPEVTCVVVDVSHEDPEVKFNWYVDGVEVHNAKTKPREEQYNSTYRVVSVLTVLHQDWLNGKEYKCKVSNKALPAPIEKTISKAKGQPREPQVYVLPPSREEMTKNQVSLLCLVKGFYPSDIAVEWESNGQPENRYMTWPPVLDSDGSFFLYSKLTVDKSRWQQGNVFSCSVMHEALHNHYTQKSLSLSPGK light: not shown
